1 protein from paper PMC4137571 (Biomaterials, 2014) can be followed below.

“And” between values parts separate entries of the source, which are not always exact repeats. Equal values may be shown once.

This data set concerns the molecule itself. Nature of the data set: SEC.

B1: HEV P^+ (modified protruding (P) protein of hepatitis E virus with C-terminal cysteine-containing peptide) (domain or fragment)
chain: PTPSPAPSRPFSVLRANDVLWLSLTAAEYDQTTYGSSTNPMYVSDTVTLVNVATGAQAVARSLDWSKVTLDGRPLTTIQQYSKTFYVLPLRGKLSFWEAGTTKAGYPYNYNTTASDQILIENAAGHRVAISTYTTSLGAGPTSISAVGVLAPHSALAVLEDTIDYPCDCRGDCFC
With B1, the “stoichiometry N” value is 2 and 4.
